{
  "source": "paper PMC6715699",
  "target": "T1, TRF2 (UniProt Q15554)",
  "T1 sequence": "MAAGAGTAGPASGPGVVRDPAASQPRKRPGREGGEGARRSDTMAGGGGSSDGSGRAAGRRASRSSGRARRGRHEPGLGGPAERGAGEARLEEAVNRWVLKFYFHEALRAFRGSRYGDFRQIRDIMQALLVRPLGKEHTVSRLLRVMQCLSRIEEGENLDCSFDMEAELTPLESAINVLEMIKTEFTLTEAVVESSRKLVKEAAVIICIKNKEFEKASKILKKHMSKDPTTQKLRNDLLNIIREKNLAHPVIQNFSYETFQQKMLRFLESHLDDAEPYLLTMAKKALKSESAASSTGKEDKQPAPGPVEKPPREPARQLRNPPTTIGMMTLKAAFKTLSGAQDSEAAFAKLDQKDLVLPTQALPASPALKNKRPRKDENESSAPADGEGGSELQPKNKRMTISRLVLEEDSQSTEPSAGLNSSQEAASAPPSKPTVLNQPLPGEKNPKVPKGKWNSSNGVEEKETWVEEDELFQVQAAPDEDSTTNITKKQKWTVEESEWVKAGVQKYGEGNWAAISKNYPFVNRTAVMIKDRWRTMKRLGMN",
  "assay": "MST",
  "details": "50 nM labelled DNA; MST in standard MST buffer (composition and pH not given), premium-treated capillaries, Monolith NT.115; 20 min at room temperature stated for the protein …",
  "data": [
    {"sequence": "TTAGGGTTAGGGTTAGGG (double strand) [TELO (TTAGGG)3]", "values": [
      {"measurement": "Kd", "value": 12.2, "unit": "nM"}
    ]}
  ]
}
